Measured values as given in patent US20250270332A1 (ANTLERA THERAPEUTICS, published 2025).

T1: FZD4 recombinant extracellular domain, Fc fusion (FZD-Fc) (UniProt Q9ULV1 37-180)
T1 construct: extracellular domain; also called FZD4 ECD; not shown: Fc part of the FZD-Fc protein
T1 sequence (looked up): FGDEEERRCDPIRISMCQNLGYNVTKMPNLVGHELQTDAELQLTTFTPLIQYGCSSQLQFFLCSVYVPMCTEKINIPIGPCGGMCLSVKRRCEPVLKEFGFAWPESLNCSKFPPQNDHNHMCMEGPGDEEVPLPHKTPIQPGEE

B1: FZD4 Agonist ANT16 (bispecific antibody, human IgG1, kappa, N297G)
heavy 1: EVQLVESGGGLVQPGGSLRLSCAASGFDFTAYAMHWVRQAPGKGLEWVASIYPSGGYTAYADSVKGRFTISADTSKNTAYLQMNSLRAEDTAVYYCARRSYYFALDYWGQGTLVTVSSGGGGSDIQMTQSPSSLSASVGDRVTITCRASQSVSSAVAWYQQKPGKAPKLLIYSASSLYSGVPSRFSGSRSGTDFTLTISSLQPEDFATYYCQQYWAYYSPITFGQGTKVEIKGGGGSGGGGSEPKTSDKTHTCPPCPAPELLGGPSVFLFPPKPKDTLMISRTPEVTCVVVAVSHEDPEVKFNWYVDGVEVHNAKTKPREEQYGSTYRVVSVLTVLHQDWLNGKEYKCKVSNKALPAPIEKTISKAKGQPREPMVFDLPPSREEMTKNQVSLWCMVKGFYPSDIAVEWESNGQPENNYKTTPPVLDSDGSFFLYSKLTVDKSRWQQGNVFSCSVMHEALHNHYTQKSLSLSPGKGGGSGGGSGGGSGGGSGSTGEVQLVESGGGLVQPGGSLRLSCAASGFTLSSYSMHWVRQAPGKGLEWVAYISSYYGYTYYADSVKGRFTISADTSKNTAYLQMNSLRAEDTAVYYCARPAPGHWGFDYWGQGTLVTVSSASTKGPSVFPLAPSSKSTSGGTAALGCLVKDYFPEPVTVSWNSGALTSGVHTFPAVLQSSGLYSLSSVVTVPSSSLGTQTYICNVNHKPSNTKVDKKVEPKSCDKTHT
heavy 2: EVQLVESGGGLVQPGGSLRLSCAASGFDFSSSSIHWVRQAPGKGLEWVASISSSYGYTYYADSVKGRFTISADTSKNTAYLQMNSLRAEDTAVYYCARSWAMDYWGQGTLVTVSSGGGGSDIQMTQSPSSLSASVGDRVTITCRASQSVSSAVAWYQQKPGKAPKLLIYSASDLYSGVPSRFSGSRSGTDFTLTISSLQPEDFATYYCQQYAGAGLITFGQGTKVEIKGGGGSGGGGSEPKSSDKTHTCPPCPAPELLGGPSVFLFPPKPKDTLMISRTPEVTCVVVAVSHEDPEVKFNWYVDGVEVHNAKTKPREEQYGSTYRVVSVLTVLHQDWLNGKEYKCKVSNKALPAPIEKTISKAKGQPREPQVYTLPPIRELMTSNQVSLSCAVKGFYPSDIAVEWESNGQPENNYKTTPPVLDSDGSFFLVSKLTVDKSRWQQGNVFSCSVMHEALHNHYTQKSLSLSPGKGGGSGGGSGGGSGGGSGSTGEVQLVESGGGLVQPGGSLRLSCAASGFTLSSYSMHWVRQAPGKGLEWVAYISSYYGYTYYADSVKGRFTISADTSKNTAYLQMNSLRAEDTAVYYCARPAPGHWGFDYWGQGTLVTVSSASTKGPSVFPLAPSSKSTSGGTAALGCLVKDYFPEPVTVSWNSGALTSGVHTFPAVLQSSGLYSLSSVVTVPSSSLGTQTYICNVNHKPSNTKVDKKVEPKSCDKTHT
light: DIQMTQSPSSLSASVGDRVTITCRASQSVSSAVAWYQQKPGKAPKLLIYSASSLYSGVPSRFSGSRSGTDFTLTISSLQPEDFATYYCQQWYYAPITFGQGTKVEIKRTVAAPSVFIFPPSDEQLKSGTASVVCLLNNFYPREAKVQWKVDNALQSGNSQESVTEQDSKDSTYSLSSTLTLSKADYEKHKVYACEVTHQGLSSPVTKSFNRGEC
notes: Diabody-Fc-Fab format: bispecific LRP5 diabody at the N-terminus, two FZD4 Fabs at the C-terminus
B2: FZD4 Agonist ANT20 (bispecific antibody)
heavy 1: EVQLVESGGGLVQPGGSLRLSCAASGFDFTAYAMHWVRQAPGKGLEWVASIYPSGGYTAYADSVKGRFTISADTSKNTAYLQMNSLRAEDTAVYYCARRSYYFALDYWGQGTLVTVSSGGGGSDIQMTQSPSSLSASVGDRVTITCRASQSVSSAVAWYQQKPGKAPKLLIYSASSLYSGVPSRFSGSRSGTDFTLTISSLQPEDFATYYCQQASYAPITFGQGTKVEIKGGGGSGGGGSEPKTSDKTHTCPPCPAPELLGGPSVFLFPPKPKDTLMISRTPEVTCVVVAVSHEDPEVKFNWYVDGVEVHNAKTKPREEQYGSTYRVVSVLTVLHQDWLNGKEYKCKVSNKALPAPIEKTISKAKGQPREPMVFDLPPSREEMTKNQVSLWCMVKGFYPSDIAVEWESNGQPENNYKTTPPVLDSDGSFFLYSKLTVDKSRWQQGNVFSCSVMHEALHNHYTQKSLSLSPGKGGGSGGGSGGGSGGGSGSTGEVQLVESGGGLVQPGGSLRLSCAASGFTLSSYSMHWVRQAPGKGLEWVAYISSYYGYTYYADSVKGRFTISADTSKNTAYLQMNSLRAEDTAVYYCARPAPGHWGFDYWGQGTLVTVSSASTKGPSVFPLAPSSKSTSGGTAALGCLVKDYFPEPVTVSWNSGALTSGVHTFPAVLQSSGLYSLSSVVTVPSSSLGTQTYICNVNHKPSNTKVDKKVEPKSCDKTHT
heavy 2: EVQLVESGGGLVQPGGSLRLSCAASGFNLSYYYMHWVRQAPGKGLEWVASIYSSYGYTYYADSVKGRFTISADTSKNTAYLQMNSLRAEDTAVYYCARWSHVSGHYSGMDYWGQGTLVTVSSGGGGSDIQMTQSPSSLSASVGDRVTITCRASQSVSSAVAWYQQKPGKAPKLLIYSASDLYSGVPSRFSGSRSGTDFTLTISSLQPEDFATYYCQQYAGAGLITFGQGTKVEIKGGGGSGGGGSEPKSSDKTHTCPPCPAPELLGGPSVFLFPPKPKDTLMISRTPEVTCVVVAVSHEDPEVKFNWYVDGVEVHNAKTKPREEQYGSTYRVVSVLTVLHQDWLNGKEYKCKVSNKALPAPIEKTISKAKGQPREPQVYTLPPIRELMTSNQVSLSCAVKGFYPSDIAVEWESNGQPENNYKTTPPVLDSDGSFFLVSKLTVDKSRWQQGNVFSCSVMHEALHNHYTQKSLSLSPGKGGGSGGGSGGGSGGGSGSTGEVQLVESGGGLVQPGGSLRLSCAASGFTLSSYSMHWVRQAPGKGLEWVAYISSYYGYTYYADSVKGRFTISADTSKNTAYLQMNSLRAEDTAVYYCARPAPGHWGFDYWGQGTLVTVSSASTKGPSVFPLAPSSKSTSGGTAALGCLVKDYFPEPVTVSWNSGALTSGVHTFPAVLQSSGLYSLSSVVTVPSSSLGTQTYICNVNHKPSNTKVDKKVEPKSCDKTHT
light: B1 light
notes: Diabody-Fc-Fab format
B3: FZD4 Agonist ANT18 (bispecific antibody)
heavy 1: EVQLVESGGGMVQPGGSLRLSCAASGFNFSSSSIHWVRQAPGKGLEWVASISSSYGYTYYADSVKGRFTISADTSKNTAYLQMNSLRAEDTAVYYCARGGSGVSHYGSVYYSWWALDYWGQGTLVTVSSGGGGSDIQMTQSPSSLSASVGDRVTITCRASQSVSSAVAWYQQKPGKAPKLLIYSASSLYSGVPSRFSGSRSGTDFTLTISSLQPEDFATYYCQQASYAPITFGQGTKVEIKGGGGSGGGGSEPKTSDKTHTCPPCPAPELLGGPSVFLFPPKPKDTLMISRTPEVTCVVVAVSHEDPEVKFNWYVDGVEVHNAKTKPREEQYGSTYRVVSVLTVLHQDWLNGKEYKCKVSNKALPAPIEKTISKAKGQPREPMVFDLPPSREEMTKNQVSLWCMVKGFYPSDIAVEWESNGQPENNYKTTPPVLDSDGSFFLYSKLTVDKSRWQQGNVFSCSVMHEALHNHYTQKSLSLSPGKGGGSGGGSGGGSGGGSGSTGEVQLVESGGGLVQPGGSLRLSCAASGFTLSSYSMHWVRQAPGKGLEWVAYISSYYGYTYYADSVKGRFTISADTSKNTAYLQMNSLRAEDTAVYYCARPAPGHWGFDYWGQGTLVTVSSASTKGPSVFPLAPSSKSTSGGTAALGCLVKDYFPEPVTVSWNSGALTSGVHTFPAVLQSSGLYSLSSVVTVPSSSLGTQTYICNVNHKPSNTKVDKKVEPKSCDKTHT
heavy 2: EVQLVESGGGLVQPGGSLRLSCAASGFNLSYYYMHWVRQAPGKGLEWVASIYSSYGYTYYADSVKGRFTISADTSKNTAYLQMNSLRAEDTAVYYCARWSHVSGHYSGMDYWGQGTLVTVSSGGGGSDIQMTQSPSSLSASVGDRVTITCRASQSVSSAVAWYQQKPGKAPKLLIYSASSLYSGVPSRFSGSRSGTDFTLTISSLQPEDFATYYCQQSSYSLITFGQGTKVEIKGGGGSGGGGSEPKSSDKTHTCPPCPAPELLGGPSVFLFPPKPKDTLMISRTPEVTCVVVAVSHEDPEVKFNWYVDGVEVHNAKTKPREEQYGSTYRVVSVLTVLHQDWLNGKEYKCKVSNKALPAPIEKTISKAKGQPREPQVYTLPPIRELMTSNQVSLSCAVKGFYPSDIAVEWESNGQPENNYKTTPPVLDSDGSFFLVSKLTVDKSRWQQGNVFSCSVMHEALHNHYTQKSLSLSPGKGGGSGGGSGGGSGGGSGSTGEVQLVESGGGLVQPGGSLRLSCAASGFTLSSYSMHWVRQAPGKGLEWVAYISSYYGYTYYADSVKGRFTISADTSKNTAYLQMNSLRAEDTAVYYCARPAPGHWGFDYWGQGTLVTVSSASTKGPSVFPLAPSSKSTSGGTAALGCLVKDYFPEPVTVSWNSGALTSGVHTFPAVLQSSGLYSLSSVVTVPSSSLGTQTYICNVNHKPSNTKVDKKVEPKSCDKTHT
light: B1 light
notes: Diabody-Fc-Fab format
B4: diabody-Fc-diabody FZD4 CM0199 (bispecific antibody)
chain 1: EFEVQLVESGGGLVQPGGSLRLSCAASGFNSSFYFMHWVRQAPGKGLEWVATVYPYLDYTYYADSVKGRFTISADTSKNTAYLQMNSLRAEDTAVYYCARAFPGSYHPMDYWGQGTLVTVSSGGGGSDIQMTQSPSSLSASVGDRVTITCRASQSVSSAVAWYQQKPGKAPKLLIYSASSLYSGVPSRFSGSRSGTDFTLTISSLQPEDFATYYCQQSSYSLITFGQGTKVEIKLEDKTHTKVEPKTSDKTHTCPPCPAPELLGGPSVFLFPPKPKDTLMISRTPEVTCVVVDVSHEDPEVKFNWYVDGVEVHNAKTKPREEQYNSTYRVVSVLTVLHQDWLNGKEYKCKVSNKALPAPIEKTISKAKGQPREPMVFDLPPSREEMTKNQVSLWCMVKGFYPSDIAVEWESNGQPENNYKTTPPVLDSDGSFFLYSKLTVDKSRWQQGNVFSCSVMHEALHNHYTQKSLSLSPGKSGSETPGTSESATPESGGGEVQLVESGGGLVQPGGSLRLSCAASGFNFSSSSIHWVRQAPGKGLEWVASISSSYGYTYYADSVKGRFTISADTSKNTAYLQMNSLRAEDTAVYYCARGGSGVSHYGSVYYSWWALDYWGQGTLVTVSSGGGGSDIQMTQSPSSLSASVGDRVTITCRASQSVSSAVAWYQQKPGKAPKLLIYSASSLYSGVPSRFSGSRSGTDFTLTISSLQPEDFATYYCQQASYAPITFGQGTKVEIK
chain 2: EFEVQLVESGGGLVQPGGSLRLSCAASGFNSSFYFMHWVRQAPGKGLEWVATVYPYLDYTYYADSVKGRFTISADTSKNTAYLQMNSLRAEDTAVYYCARAFPGSYHPMDYWGQGTLVTVSSGGGGSDIQMTQSPSSLSASVGDRVTITCRASQSVSSAVAWYQQKPGKAPKLLIYSASSLYSGVPSRFSGSRSGTDFTLTISSLQPEDFATYYCQQSSYSLITFGQGTKVEIKLEDKTHTKVEPKSSDKTHNCPPCPAPELLGGPSVFLFPPKPKDTLMISRTPEVTCVVVDVSHEDPEVKFNWYVDGVEVHNAKTKPREEQYNSTYRVVSVLTVLHQDWLNGKEYKCKVSNKALPAPIEKTISKAKGQPREPQVYTLPPIRELMTSNQVSLSCAVKGFYPSDIAVEWESNGQPENNYKTTPPVLDSDGSFFLVSKLTVDKSRWQQGNVFSCSVMHEALHNHYTQKSLSLSPGKSGSETPGTSESATPESGGGEVQLVESGGGLVQPGGSLRLSCAASGFNLSYYYMHWVRQAPGKGLEWVASIYSSYGYTYYADSVKGRFTISADTSKNTAYLQMNSLRAEDTAVYYCARWSHVSGHYSGMDYWGQGTLVTVSSGGGGSDIQMTQSPSSLSASVGDRVTITCRASQSVSSAVAWYQQKPGKAPKLLIYSASSLYSGVPSRFSGSRSGTDFTLTISSLQPEDFATYYCQQSSYSLITFGQGTKVEIK
notes: Diabody-Fc-diabody format FZD agonist that recognizes FZD4 and LRP5; also called F4L5.13

Molecular target: T1, FZD4 recombinant extracellular domain, …
Test: BLI (Octet), FZD-Fc captured on AHQ sensors, agonist in solution; apparent affinity

Binder	Kd [nM]
B1	0.6
B2	0.7
B3	2.6
B4	0.7
